What was measured:
BALB/c lymph node-cells = assay: T-cell migration assay towards SDF-1α, mouse lymph node cells; assay type: cell-based, BALB/c mice; settings: in vitro, HSP60 1 hr
Description: Mice and mouse T cells. Female C57BL/6J were obtained from Harlan Olac (Bicester, U.K.). TLR2-knockout mice on the C57BL/6J background were kindly provided by Dr. S. Akira (Osaka University, Osaka, Japan). CD3^+ T cells were isolated by negative selection with anti-mouse antibody cocktail (Pan T cell kit; Miltenyi Biotec; CITY Germany). The labeled cells were then passed through separation columns (MidiMACS columns, Miltenyi Biotec). The purified cells (>97% T cells) were untreated or treated with HSP60 as described. Similarly, T cells were purified from the lymph nodes of BALB/c mice (females, 1.5 months of age).
T-cell migration assay. Migration of ^51[Cr]-labeled human and mouse T cells through FN or endothelial cells to recombinant human SDF-1α was examined in 48-well Transwell chemotaxis apparatus (5-μm pore filters, 6.5-mm diameter; Corning, N.Y.), as previously described (Zanin-Zhorov et al., 2003b). For transendothelial migration assays, 2×10^4 cells of HUVEC were layered on the filters and grown in 10% FCS M199 for 2 days before the performance of each assay. Then, HUVEC were stimulated with TNF-α (50 ng/ml) for 24 hr and washed.

STAT3 = STAT3 phosphorylation in human T cells; assay type: cell-based
Method: Western blotting of T-cell lysates. T cells were incubated (24 hr, 37° C.) in starvation medium (RPMI medium without serum). Aliquots (5×10^6/sample) of the starved cells were preincubated (for various intervals) with different concentrations of HSP60 prior to exposure to SDF-1α (100 ng/ml, 10 min, 37° C., tissue culture conditions). These reactions were terminated by freezing the plates (−70° C., 10 min). The plates were thawed, and the cells solubilized by incubating (60 min, 4° C.) in lysis buffer [EDTA (0.5 mM), NaCL (150 mM), NaF (10 nM), Tris pH 7.5 (25 mM), Triton X-100 (1%), PMSF (200 pg/ml), and phosphatase inhibitor cocktail (1%)]. Lysates were cleared by centrifugation (30 min, 14×10^3 rpm, 4° C.), and the resulting supernatants analyzed for protein content. Sample buffer was added, the samples were boiled, and equal amounts of proteins were separated by 10% SDS-PAGE and transferred to nitrocellulose membranes. […] Phosphorylation levels of the 3-5 independent experiments were estimated by densitometry, and an average percentage of phosphorylation±SD was calculated as OD of pERK/tERK, or pPyk2/tPyk2, or pAKT/tAKT, pMLC/tMLC, or pSTAT3/tSTAT3×100%.

CD4^+CD25^+ T cells = assay: Co-culture of treated CD4+CD25+ T cells with CD4+CD25- T cells; assay type: cell-based, human
NF-κB = assay: Nuclear translocation of NF-κB in T cells; assay type: cell-based, human
Method: (§1) Western blot analysis of T-cell nuclear extracts. Purified T cells (5×10^6) were preincubated with different concentrations of HSP60 for the indicated periods of time (37° C. in a 7% CO2, humidified atmosphere). […] T cells were lysed in 10 mM HEPES, 1.5 mM MgCl2, 1 mM dithiothreitol (DTT), 1 mM PMSF, 0.5% Nonidet P-40. The lysates were incubated on ice for 10 min and centrifuged at 2000 rpm for 10 min at 4° C. The supernatants (cytoplasmic extracts) were transferred and the pellet (nuclei) was suspended in buffer containing 30 mM HEPES, 450 mM NaCl, 25% Glycerol, 0.5 mM EDTA, 6 mM DTT, 12 mM MgCl2 1 mM PMSF, 10 μg/ml leupeptin, 10 μg/ml pepstatin, 1% phosphatase inhibitor cocktail, and the suspension was incubated on ice for 30 min. The lysates were cleared by centrifugation (30 min, 14×10^3 rpm, 4° C.), and the resulting supernatants analyzed for protein content. For NFATp analysis nuclear extracts were prepared with a NE-PER Nuclear and Cytoplasmic Extraction reagent (Pierce, Rockford, Ill.) according to the manufacturer's protocol. Sample buffer was then added and, after boiling, the samples, containing equal amounts of proteins, were separated on 10% SDS-PAGE gel and transferred to nitrocellulose membranes. The membranes were blocked with TBST buffer containing low-fat milk (5%), Tris pH 7.5 (20 mM), NaCl (135 mM) and Tween 20 (0.1%), and probed with the following mAb in the same buffer: anti-NF-κb (diluted 1:1000), anti-total (t) ERK (diluted 1:20,000), anti-NFATp (diluted 1:500), anti T-bet (diluted 1:1000), anti-GATA-3 (diluted 1:1000), anti-Lamin B (diluted 1:1000). Immunoreactive protein bands were visualized using labeled secondary antibodies and the enhanced ECL system.

NFATp = NFATp activation in T cells; assay type: cell-based, human
Method: as §1

T-bet and GATA-3 = T-bet and GATA-3 expression in oxazolone-reactive mouse T cells; assay type: cell-based; settings: 1 ng/ml for 2 hr
Method: as §1, with “The membranes were blocked with TBST buffer containing low-fat milk (5%), Tris pH 7.5 (20 mM), NaCl (135 mM) and Tween 20 (0.1%), and probed with the following mAb in the same buffer: anti-NF-κb (diluted 1:1000), anti-total (t) ERK (diluted 1:20,000), anti-NFATp (diluted 1:500), anti T-bet (diluted 1:1000), anti-GATA-3 (diluted 1:1000), anti-Lamin B (diluted 1:1000). Immunoreactive protein bands were visualized using labeled secondary antibodies and the enhanced ECL system.” left out

[1] = CD4+CD25+ treated 1 ng/ml 2 hr, co-cultured with CD4+CD25- on anti-CD3, 24 hr

B1: HSP60: recombinant human heat shock protein 60 (StressGen Biotechnologies) (protein)
chain: AKDVKFGADARALMLQGVDLLADAVAVTMGPKGRTVIIEQSWGSPKVTKDGVTVAKSIDLKDKYKNIGAKLVQDVANNTNEEAGDGTTTATVLARSIAKEGFEKISKGANPVEIRRGVMLAVDAVIAELKKQSKPVTTPEEIAQVATISANGDKEIGNIISDAMKKVGRKGVITVKDGKTLNDELEIIEGMKFDRGYISPYFINTSKGQKCEFQDAYVLLSEKKISSIQSIVPALEIANAHRKPLVIIAEDVDGEALSTLVLNRLKVGLQVVAVKAPGFGDNRKNQLKDMAIATGGAVFGEEGLTLNLEDVQPHDLGKVGEVIVTKDDAMLLKGKGDKAQIEKRIQEIIEQLDVTTSEYEKEKLNERLAKLSDGVAVLKVGGTSDVEVNEKKDRVTDALNATRAAVEEGIVLGGGCALLRCIPALDSLTPANEDQKIGIEIIKRTLKIPAMTIAKNAGVEGSLIVEKIMQSSSEVGYDAMAGDFVNMVEKGIIDPTKVVRTALLDAAGVASLLTTAEVVVTEIPKEEKDPGMGAMGGMGGGMGGGMF
migration of mouse lymph node cells towards SDF-1α (BALB/c lymph node-cells): inhibited migration of mouse lymph node cells towards SDF-1α
phosphorylation of STAT3 (STAT3): induced phosphorylation of STAT3
anti-CD3-induced proliferation of CD4+CD25- T cells in co-culture (CD4^+CD25^+ T cells; 24 hours): did not suppress anti-CD3-induced proliferation
anti-CD3-induced proliferation of CD4+CD25- T cells in co-culture (CD4^+CD25^+ T cells; 96 hours): significant inhibition of proliferation
IFN-γ and TNF-α secretion in co-culture (CD4^+CD25^+ T cells; [1]): significantly enhanced the down-regulation of secretion of IFN-γ and TNF-α secretion
IL-10 and TGF-β secretion in co-culture (CD4^+CD25^+ T cells; [1]): up-regulated the secretion of IL-10 and TGF-β in the co-cultures
inhibition of IFN-γ and TNF-α secretion of CD4+CD25- T cells by supernatants of treated Tregs (CD4^+CD25^+ T cells; HSP60 1 ng/ml, 2 hr, supernatants after 24 hr on anti-CD3): about 30%
time at which NF-κB inhibition was apparent (NF-κB; 1 ng/ml): 60 min
time of peak NF-κB inhibition (NF-κB; 1 ng/ml): 120 to 240 min
nuclear translocation of NF-κB without anti-CD3 (NF-κB; HSP60 alone): did not affect the nuclear translocation of NF-κB
concentrations of maximal effects on NF-κB (NF-κB; P<0.01): 1 ng/ml or 1 μg/ml
time at which NFATp inhibition was apparent (NFATp; 1 ng/ml): 60 min
time of peak NFATp inhibition (NFATp; 1 ng/ml): 120 to 240 min
anti-CD3-induced activation and de-phosphorylation of NFATp (NFATp; 1 ng/ml pre-treatment): significant down-regulation of their activation and de-phosphorylation of NFATp
NFATp phosphorylation in the absence of anti-CD3 (NFATp; HSP60 alone): did not affect NFATp phosphorylation
GATA-3 expression (T-bet and GATA-3): up-regulation of GATA-3 expression
T-bet expression (T-bet and GATA-3): down-regulation of T-bet
